# Results reported in article PMC8395244, “The Oxoglutarate Binding Site and Regulatory Mechanism Are Conserved in Ammonium Transporter Inhibitors GlnKs from Methanococcales” (International Journal of Molecular Sciences, 2021).
# B1: GlnK1 from Methanocaldococcus jannaschii without a C-terminal tag (MjGlnK1^woT) (natural protein)
# chain: MKKVEAIIRPEKLEIVKKALSDAGYVGMTVSEVKGRGVQGGIVERYRGREYIVDLIPKVKIELVVKEEDVDNVIDIICENARTGNPGDGKIFVIPVERVVRVRTKEEGKEAL
# notes: GlnK1, PII-family protein, of Methanocaldococcus jannaschii strain DSM 2661; codon-optimised synthetic gene cloned NdeI/XhoI in pET-24b(+) with a stop codon upstream of the XhoI site, so without a tag; Produced and crystallised without a tag; the crystals came from the gel filtration pool that eluted at 66 mL; also called MjGlnK1^woT-Mg-ATP/2OG; MjGlnK1 with ATP, Mg and 2OG; source: E. coli …
# Biological target: the molecule itself
# Experiment: crystal structure; sitting drop at 18 °C; crystallised with or without 2 mM ATP, 2 mM 2OG and 2 mM MgCl2; solved by molecular replacement with PDB 2J9D
protein,measurement,value
B1,stoichiometry N,3
